The numbers were not newly measured in patent US12377133B2 (Ascendis Pharma Growth Disorders A/S, priority 2019, dated 2025), which cites them from elsewhere.

Bridges are numbered along the chain shown (N, C = ends). Where no end group is shown, it is not given here.

The conditions of this data set: Lorget et al. 2012.

Take “BMN111: recombinant CNP-39: 37 C-terminal amino acids of human CNP-53 plus glycine and proline added at the N-terminus (PGQEHPNARKYKGANKKGLSKGCFGLKLDRIGSMSGLGC; disulfide 23-39; chains of the INN, looked up)”: the half-life is 20 min.

As usually defined, the half-life is the time needed for the level to fall by half in the phase considered.
